Source: the Immune Epitope Database (IEDB)

Experiments:
HLA-A*30:01 = assay: IEDB peptide-MHC binding, purified MHC/competitive/fluorescence; filed as Kd, often an IC50 or EC50 that approximates it; ≥ and ≤ were set here for values at or beyond the usual limits of such assays; conditions: source organism: Human immunodeficiency virus 1
HLA-B*39:01 = assay: as above
HLA-A*02:06 = assay: as above; conditions: source organism: Human immunodeficiency virus 1
HLA-A*31:01 = assay: as above; conditions: source organism: Human immunodeficiency virus 1
HLA-A*02:03 [1] = assay: as above
HLA-A*02:01 = assay: as above
HLA-C*12:03 = assay: IEDB peptide-MHC binding, purified MHC/direct/fluorescence; filed as Kd, often an IC50 or EC50 that approximates it; ≥ and ≤ were set here for values at or beyond the usual limits of such assays
HLA-C*03:03 = assay: as above
HLA-A*68:02 [2] = assay: IEDB peptide-MHC binding, purified MHC/competitive/fluorescence; filed as Kd, often an IC50 or EC50 that approximates it; ≥ and ≤ were set here for values at or beyond the usual limits of such assays
HLA-B*15:01 = assay: as above
HLA-A*03:01 [3] = assay: as above
HLA-B*27:03 = assay: as above
HLA-B*51:01 = assay: as above
HLA-B*46:01 = assay: as above
HLA-B*57:01 = assay: as above
HLA-A*69:01 = assay: as above
HLA-A*02:12 [4] = assay: as above
HLA-A*26:01 = assay: as above
HLA-B*18:01 = assay: as above
HLA-B*07:02 = assay: as above
HLA-B*35:01 = assay: as above
HLA-A*02:19 [5] = assay: as above
HLA-A*29:02 = assay: as above
HLA-A*23:01 = assay: as above; conditions: source organism: Rickettsia sibirica 246
HLA-B*08:01 = assay: as above; conditions: source organism: Yersinia pestis Nepal516
HLA-B*15:17 = assay: as above; conditions: source organism: Vibrio parahaemolyticus AQ3810
HLA-A*24:03 = assay: as above
HLA-A*02:11 [6] = assay: as above; conditions: source organism: Entamoeba histolytica HM-1:IMSS
HLA-A*02:16 = assay: IEDB peptide-MHC binding, purified MHC/direct/fluorescence; filed as Kd, often an IC50 or EC50 that approximates it; ≥ and ≤ were set here for values at or beyond the usual limits of such assays; conditions: source organism: Orthohantavirus andesense
HLA-A*68:02 [7] = assay: as above; conditions: source organism: Orthohantavirus andesense
HLA-A*02:19 [8] = assay: as above; conditions: source organism: Orthohantavirus andesense
HLA-A*03:01 [9] = assay: as above; conditions: source organism: Orthohantavirus andesense
HLA-A*02:03 [10] = assay: as above; conditions: source organism: Orthohantavirus andesense
HLA-A*02:11 [11] = assay: as above; conditions: source organism: Orthohantavirus andesense
HLA-A*02:12 [12] = assay: as above; conditions: source organism: Orthohantavirus andesense
[13] = source organism: Human immunodeficiency virus 1
[14] = source organism: Vaccinia virus WR
[15] = source organism: Yersinia pestis Nepal516
[16] = source organism: Bacillus cereus G9241
[17] = source organism: Entamoeba dispar SAW760
[18] = source organism: Mycobacterium avium
[19] = source organism: Vibrio parahaemolyticus AQ3810
[20] = source organism: Giardia lamblia ATCC 50803
[21] = source organism: Entamoeba histolytica HM-1:IMSS
[22] = source organism: Orthohantavirus andesense

Sequence: EKLKSLYNTI
- Kd (HLA-A*30:01): 0.072 µM
- Kd (HLA-B*39:01; [13]): 0.747 µM
- Kd (HLA-A*02:06): 3.71 µM
- Kd (HLA-A*31:01): 4.47 µM
- Kd (HLA-A*02:03 [1]; [13]): 0.0239 µM

Sequence: FLRDNLYHV
- Kd (HLA-A*02:01; [14]): 0.0016 µM
- Kd (HLA-C*12:03; [14]): 0.029 µM
- Kd (HLA-C*03:03; [14]): ≥ 20 µM

Sequence: ILHRLAPWI
- Kd (HLA-B*39:01; [15]): ≥ 20 µM
- Kd (HLA-A*68:02 [2]; [15]): ≥ 20 µM
- Kd (HLA-B*15:01; [15]): ≥ 20 µM
- Kd (HLA-A*03:01 [3]; [15]): ≥ 20 µM
- Kd (HLA-B*27:03; [15]): ≥ 20 µM
- Kd (HLA-A*02:01; [15]): 0.0473 µM
- Kd (HLA-B*51:01; [15]): ≥ 20 µM
- Kd (HLA-B*46:01; [15]): ≥ 20 µM
- Kd (HLA-B*57:01; [15]): ≥ 20 µM
- Kd (HLA-A*69:01; [15]): ≥ 20 µM
- Kd (HLA-A*02:12 [4]; [15]): 0.103 µM
- Kd (HLA-A*26:01; [15]): ≥ 20 µM
- Kd (HLA-B*18:01; [15]): ≥ 20 µM

Sequence: IPLSILLTL
- Kd (HLA-B*07:02; [16]): 0.028 µM
- Kd (HLA-B*51:01; [16]): 0.954 µM
- Kd (HLA-B*35:01; [16]): 0.0004 µM

Sequence: KDGTLFYCY
- Kd (HLA-B*39:01; [17]): ≥ 20 µM
- Kd (HLA-A*68:02 [2]; [17]): ≥ 20 µM
- Kd (HLA-A*02:19 [5]; [17]): ≥ 20 µM
- Kd (HLA-B*15:01; [17]): ≥ 20 µM
- Kd (HLA-A*03:01 [3]; [17]): ≥ 20 µM
- Kd (HLA-B*27:03; [17]): ≥ 20 µM
- Kd (HLA-B*51:01; [17]): ≥ 20 µM
- Kd (HLA-A*02:03 [1]; [17]): ≥ 20 µM
- Kd (HLA-A*29:02; [17]): 0.106 µM
- Kd (HLA-B*46:01; [17]): ≥ 20 µM
- Kd (HLA-B*57:01; [17]): ≥ 20 µM
- Kd (HLA-A*69:01; [17]): ≥ 20 µM
- Kd (HLA-A*02:12 [4]; [17]): ≥ 20 µM
- Kd (HLA-A*26:01; [17]): ≥ 20 µM

Sequence: KFVAGAMNI
- Kd (HLA-A*23:01): 0.0117 µM

Sequence: LAANFVVAL
- Kd (HLA-C*12:03; [18]): 0.206 µM
- Kd (HLA-C*03:03; [18]): 0.124 µM

Sequence: LPLNRAYPL
- Kd (HLA-B*39:01; [15]): 0.0093 µM
- Kd (HLA-B*07:02; [15]): 0.0063 µM
- Kd (HLA-B*51:01; [15]): 2.57 µM
- Kd (HLA-B*35:01; [15]): ≤ 0.0001 µM
- Kd (HLA-B*08:01): 0.06 µM

Sequence: MLTNASGHA
- Kd (HLA-B*39:01; [19]): ≥ 20 µM
- Kd (HLA-B*15:17): ≥ 20 µM
- Kd (HLA-A*02:19 [5]; [19]): ≥ 20 µM
- Kd (HLA-B*15:01; [19]): ≥ 20 µM
- Kd (HLA-A*03:01 [3]; [19]): ≥ 20 µM
- Kd (HLA-B*27:03; [19]): ≥ 20 µM
- Kd (HLA-A*02:01; [19]): 0.2 µM
- Kd (HLA-B*51:01; [19]): ≥ 20 µM
- Kd (HLA-A*29:02; [19]): ≥ 20 µM
- Kd (HLA-B*46:01; [19]): ≥ 20 µM
- Kd (HLA-B*57:01; [19]): ≥ 20 µM
- Kd (HLA-A*69:01; [19]): ≥ 20 µM
- Kd (HLA-A*24:03; [19]): ≥ 20 µM
- Kd (HLA-A*02:12 [4]; [19]): 0.438 µM
- Kd (HLA-A*26:01; [19]): ≥ 20 µM
- Kd (HLA-B*18:01; [19]): ≥ 20 µM

Sequence: RIRFVQNAL
- Kd (HLA-B*07:02; source organism: Influenza A virus (A/Denver/1957(H1N1))): 0.0199 µM

Sequence: RLREALCAV
- Kd (HLA-C*03:03; source organism: Mycobacterium tuberculosis str. Haarlem): ≥ 20 µM

Sequence: RMAATAQVL
- Kd (HLA-C*03:03; source organism: Mycobacterium tuberculosis C): 0.012 µM

Sequence: TELPLAYER
- Kd (HLA-B*39:01; [20]): ≥ 20 µM
- Kd (HLA-A*02:19 [5]; [20]): ≥ 20 µM
- Kd (HLA-B*15:01; [20]): ≥ 20 µM
- Kd (HLA-A*03:01 [3]; [20]): ≥ 20 µM
- Kd (HLA-B*27:03; [20]): ≥ 20 µM
- Kd (HLA-A*02:01; [20]): ≥ 20 µM
- Kd (HLA-B*51:01; [20]): ≥ 20 µM
- Kd (HLA-A*02:03 [1]; [20]): ≥ 20 µM
- Kd (HLA-B*46:01; [20]): ≥ 20 µM
- Kd (HLA-B*57:01; [20]): ≥ 20 µM
- Kd (HLA-A*24:03; [20]): ≥ 20 µM
- Kd (HLA-A*02:12 [4]; [20]): ≥ 20 µM
- Kd (HLA-A*26:01; [20]): ≥ 20 µM
- Kd (HLA-B*18:01; [20]): 0.395 µM

Sequence: TLPGCLIIL
- Kd (HLA-B*39:01; [21]): ≥ 20 µM
- Kd (HLA-B*15:01; [21]): ≥ 20 µM
- Kd (HLA-A*03:01 [3]; [21]): ≥ 20 µM
- Kd (HLA-B*27:03; [21]): ≥ 20 µM
- Kd (HLA-B*51:01; [21]): ≥ 20 µM
- Kd (HLA-B*46:01; [21]): ≥ 20 µM
- Kd (HLA-A*02:11 [6]): 4.65 µM
- Kd (HLA-B*57:01; [21]): ≥ 20 µM
- Kd (HLA-A*26:01; [21]): ≥ 20 µM
- Kd (HLA-B*18:01; [21]): ≥ 20 µM

Sequence: VFTSRIQVI
- Kd (HLA-B*39:01; [22]): ≥ 20 µM
- Kd (HLA-B*27:03; [22]): ≥ 20 µM
- Kd (HLA-A*02:01; [22]): ≥ 20 µM
- Kd (HLA-B*51:01; [22]): ≥ 20 µM
- Kd (HLA-B*46:01; [22]): ≥ 20 µM
- Kd (HLA-B*57:01; [22]): ≥ 20 µM
- Kd (HLA-A*69:01; [22]): ≥ 20 µM
- Kd (HLA-A*24:03; [22]): 0.0246 µM
- Kd (HLA-A*26:01; [22]): ≥ 20 µM
- Kd (HLA-B*18:01; [22]): ≥ 20 µM
- Kd (HLA-A*02:16): ≥ 20 µM
- Kd (HLA-A*68:02 [7]): ≥ 20 µM
- Kd (HLA-A*02:19 [8]): ≥ 20 µM
- Kd (HLA-A*03:01 [9]): ≥ 20 µM
- Kd (HLA-A*02:03 [10]): ≥ 20 µM
- Kd (HLA-A*02:11 [11]): ≥ 20 µM
- Kd (HLA-A*02:12 [12]): ≥ 20 µM
